Results from patent publication US20260022151A1 (TSINGHUA UNIVERSITY, published 2026).

Experiments:
[1] = biological target: T1, CXCR4-mCherry; assay: time-lapse confocal imaging, HEK293T cells co-expressing CXCR4-mCherry and DR5-GFP, 200 nM
T1 construct: Co-expressed with DR5-GFP on transfected HEK293T cells; also called exogenous CXCR4; CXCR4 fused with an mCherry tag at the C-terminal

[2] = biological target: T2, DR5-GFP; assay: as above
T2 construct: Co-expressed with CXCR4-mCherry on transfected HEK293T cells; also called exogenous DR5; DR5 fused with a GFP tag at the C-terminal

[3] = biological target: T3, endogenous CXCR4 receptor on human tumor cells (human, UniProt P61073 1-352); assay: FRAP and confocal imaging on SJSA-1 cells, 200 nM
T3 construct: whole, on cells; also called CXC motif chemokine receptor 4
T3 sequence (P61073 whole entry): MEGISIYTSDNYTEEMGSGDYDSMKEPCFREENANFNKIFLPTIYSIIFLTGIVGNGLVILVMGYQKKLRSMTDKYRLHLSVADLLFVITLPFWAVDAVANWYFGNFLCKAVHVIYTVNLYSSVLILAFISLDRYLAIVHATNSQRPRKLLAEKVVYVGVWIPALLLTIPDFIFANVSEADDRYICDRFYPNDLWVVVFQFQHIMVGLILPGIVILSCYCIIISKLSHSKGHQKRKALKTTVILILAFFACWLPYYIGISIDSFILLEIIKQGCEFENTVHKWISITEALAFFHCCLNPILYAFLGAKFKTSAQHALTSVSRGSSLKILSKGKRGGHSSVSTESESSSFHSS
Description: Fluorescence recovery after photobleaching (FRAP) is an experiment commonly used to verify liquid-liquid phase separation, see, for example, Alberti, Simon et al., Journal of Molecular Biology 430(23): 4806-4820, 2018: McSwiggen, David T et al., Genes & Development 33(23-24): 1619-1634, 2019. Therefore, FRAP was performed on the same droplets as in Example 4 that contain 12.5 μM CN-P2S2-DN protein. After bleaching with 488 nm laser light at a laser intensity of 50% for 1 second, fluorescence images were taken under a NIKON A1R HD25 laser confocal microscope (purchased from Nikon, Inc.) with a 100× oil immersion objective lens. The images were analyzed and exported using NIS-Elements AR Analysis (Nikon, Inc.) and Image J (National Institutes of Health) software.
SJSA-1 cells were treated with 200 nM CN-P2S2-DN (labeled with Alexa 561) for 4 hrs in the same manner as in Example 5, and photobleaching analysis was performed.

[4] = biological target: endogenous DR5 receptor on human tumor cells (human, UniProt O14763 56-440); assay: cell-based or functional assay
[5] = biological target: T1, CXCR4-mCherry; assay: live-cell confocal colocalisation, HEK293T cells co-expressing CXCR4-mCherry and DR5-GFP
Description: (§1) HEK293T cells were seeded at a density of 5×10⁵ cells/well into a 4-well chamber 35 mm culture dish (purchased from In Vitro Scientific) and cultured at 37° C., 5% CO₂ until the cell density reached approximately 60-70% confluence. Then, plasmids pCDNA3.1-CXCR4-mCherry and pCDNA3.1-DR5-GFP were gently pipetted and mixed with Opti-MEM Medium (purchased from Invitrogen. Inc.) without antibiotics and serum in a sterile centrifuge tube, in an amount of 0.5 μg pCDNA3.1-CXCR4-mCherry and 0.5 μg pCDNA3.1-DR5-GFP per well. Lipo8000™ transfection reagent (purchased from Shanghai Bio-Tech Biotechnology Co., Ltd.) was added and gently pipetted and mixed again to obtain a plasmid solution for transfection (i.e., each 100 μl Opti-MEM Medium contained 0.5 μg of plasmids pCDNA3.1-CXCR4-mCherry and pCDNA3.1-DR5-GFP, and 1.6 μl Lipo8000). The evenly mixed plasmid solution was added dropwise to each well, gently mixed, and then cultured for 24-36 hours at 37° C., and 5% CO₂ to obtain HEK293T cells co-expressing CXCR4-mCherry and DR5-GFP.
(§2) 200 nM CN-P2S2-DN protein or its different truncated variants P2S2-CN, P2S2. P2S2-DN (all labeled with fluorescent dye Alexa 647) were added to the above cell culture medium. HEK293T cells treated in the same manner with blank solution under the same conditions were used as negative controls. […]

[6] = biological target: T2, DR5-GFP; assay: as above
Description: as §1, §2

T1 sequence (chain, as listed by the source limits assumed): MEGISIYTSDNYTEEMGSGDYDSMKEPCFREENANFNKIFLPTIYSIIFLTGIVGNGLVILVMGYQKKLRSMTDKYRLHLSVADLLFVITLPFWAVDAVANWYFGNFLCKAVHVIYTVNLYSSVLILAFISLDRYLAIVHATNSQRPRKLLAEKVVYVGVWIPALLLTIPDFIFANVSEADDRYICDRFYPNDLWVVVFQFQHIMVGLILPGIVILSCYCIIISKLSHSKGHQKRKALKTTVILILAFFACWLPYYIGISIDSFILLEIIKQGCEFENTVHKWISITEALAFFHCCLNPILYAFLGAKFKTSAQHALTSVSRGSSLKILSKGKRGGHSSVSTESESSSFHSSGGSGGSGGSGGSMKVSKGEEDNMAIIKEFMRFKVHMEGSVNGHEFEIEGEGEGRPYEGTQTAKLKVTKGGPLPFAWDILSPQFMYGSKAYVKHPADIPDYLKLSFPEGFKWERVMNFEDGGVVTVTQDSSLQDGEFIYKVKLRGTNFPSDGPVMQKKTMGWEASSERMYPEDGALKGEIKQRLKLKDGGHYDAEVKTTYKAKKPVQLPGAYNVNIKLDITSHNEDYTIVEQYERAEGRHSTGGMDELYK

Binder	binding result [1]	binding result [2]	binding result [3]	IC50 of apoptosis induction in CXCR4/DR5 COLO-205 cells (Annexin V-FITC/PI flow cytometry) [4] [nM]	IC50 of apoptosis induction in CXCR4/DR5 SJSA-1 cells (Annexin V-FITC/PI flow cytometry) [4] [nM]	apoptosis ratio in other CXCR4+/DR5+ double-positive tumor cell lines, 200 nM, 5 hr [4] [%]	apoptosis ratio, COLO-205 cells, 100 nM, 3 hr [4] [%]	apoptosis ratio, SJSA-1 tumor cells, 100 nM, 3 hr [4] [%]	binding result [5]	binding result [6]
recombinant protein CN-P2S2-DN (designed binder, fluorescent dye label by Alexa Fluor C5 maleimide (Alexa 647, Alexa 561 or Alexa 546 in the imaging experiments); labelled residue not stated, MBP removed by TEV protease; Unlabelled, endotoxin-free protein was used in the apoptosis assays; also called synthetic ligand CN-P2S2-DN; recombinant ligand CN-P2S2-DN) EVQLMESGGGLVQAGGSLRLSCAASGRTFNNYAMGWFRRAPKGEREFVAAITRSGVRSGVSAIYGDSVKDRFTISRDNAKNTLYLQMNSLKPEDTAVYTCAASAIGSGALRRFEYDYSGQGTQVTVSSGGSGGSGGSGGSASMKGGSWGGSKKTPPPVPPRTTSKGGSGGSGGSGGSKKTPPPVPPRTTSKGGSGGSGGSGGSDLNMPAYVKFNYMAEREDELSLIKGTKVIVMEKSSDGWWRGSYNGQVGWFPSNYVTEEGDSPLASGAGGSEGGGSEGGTSGATDLNMPAYVKFNYMAEREDELSLIKGTKVIVMEKSSDGWWRGSYNGQVGWFPSNYVTEEGDSPLGSMGMGEVQLLESGGGLVQPGGSLRLSCAASGTFDKINNMGWYRQAPGKQRDLVAQITPGGITDYADSVKGRFTISRDNSKNTLYLQMNSLRPEDTAVYYCNAEILKRAYIDVYVNYWGQGTLVTVSS	binds	binds	binds	28.9	10.1	> 40	74	82.5	–	–
truncated variant P2S2 (other, fluorescent dye label by Alexa Fluor C5 maleimide; labelled residue not stated) MKGGSWGGSKKTPPPVPPRTTSKGGSGGSGGSGGSKKTPPPVPPRTTSKGGSGGSGGSGGSDLNMPAYVKFNYMAEREDELSLIKGTKVIVMEKSSDGWWRGSYNGQVGWFPSNYVTEEGDSPLASGAGGSEGGGSEGGTSGATDLNMPAYVKFNYMAEREDELSLIKGTKVIVMEKSSDGWWRGSYNGQVGWFPSNYVTEEGDSPLG	–	–	–	–	–	–	–	–	no binding (tested: 200 nM)	no binding (tested: 200 nM)
